From patent US8673289B2, “Attenuated uracil auxotroph of an apicomplexan and use thereof” (priority 2007, dated 2014)
Like-named read-outs stand apart in the source and are kept apart here.

Legend:
cps1 and cps2 mutants = assay: pyrimidine dependence of cps1 and cps2 replication and plaque formation; assay type: cell-based, Toxoplasma gondii; settings: relatively low (thymine, thymidine: moderate) concentrations in medium
Description: However, all of these mutants are somewhat “leaky” in that there was not an absolute growth (replication) dependence on uracil addition to the growth medium for replication. Each of these mutants grows at a moderate (½ of normal) growth rate for the first 2 days following infection of a host cell producing vacuoles that contained 16 to 32 parasites by 3 days post infection. In contrast, RH parasites are lysed out of their primary vacuoles at this time (3 days, >64 parasites). However, the cps mutants slow after 3 days and many parasites never (about ⅓) break out of their primary vacuole. If the primary vacuole breaks, a few parasites can be detected at the site of infection but the infection site always involves a small zone of infection that never forms a visible plaque in a standard 7 day plaque assay. To quantitate growth of these mutants, HFF flasks were inoculated with […] or cps2 parasites (about a multiplicity of infection (MOI) of 1 parasite per 20 HFF cells). After 2 hours of attachment and invasion (all of these mutants have normal attachment and invasion phenotypes as scored by counting percent entered parasites into host cells as a function of time post-inoculation), different concentrations of different pyrimidine compound was added to parallel infected HFF flasks. As a function of time post pyrimidine addition (t=0 hour) the number of parasites per vacuole was scored for 50 vacuoles as described by Fox et al. ((1999) supra). The number of parasite doublings was calculated based on 1 parasite entering each primary vacuole. Thus, 1 doubling=2 parasites per vacuole, 3 doublings=8 parasites per vacuole, and 5 doublings=32 parasites per vacuole. The pyrimidine dependence of cps1 and cps2 replication (doublings of parasites in the vacuole) was plotted graphically. […] The response to thymine and thymidine was additionally informative about the cause of the growth defect in cps1 and cps2. […] This is believed to be caused by the putative defect in the cps1 and cps2 mutants which is a reduced “pool” size of UMP. If UMP pools (ultimately used for RNA and DNA synthesis) are lowered it follows that a resulting decrease in TMP pools is expected since UMP is the precursor of TMP in T. gondii and all other apicomplexan parasites which normally lack TK activity. However, since cps1 and cps2 now express a TK activity carried into the parasite by the p53KOX3-1R plasmid, exemplified by sensitivity of these mutants to ganciclovir (specific to HSV TK), feeding parasites either thymine or thymidine is expected to increase TMP pools. Thus, it appears that moderate levels of thymine or thymidine partially rescue growth of cps1 and cps2 by restoring TMP pools. […] Since the parasite has no mechanism to convert TMP back to UMP there is still a defect in the UMP pool in cps1 and cps2 even with added thymine or thymidine and rescue is never complete. The ability of cps1 and cps2 mutants to form plaques on HFF monolayers in the standard 7 day assay paralleled the pyrimidine dependence of parasite replication in vacuoles.
The cps1 and cps2 mutants were inoculated intraperitoneally (i.p.) into balb/c mice to measure parasite virulence compared to virulent RH parasites. Both mutant cps1 and cps2 had equal virulence as RH parasites in balb/c mice (Jackson Labs), killing all mice within 10 days of i.p. inoculation (group size was four mice per parasite strain). Only 100 parasites (˜50 PFU) of each parasite strain was needed to kill all mice in each group. This pattern of virulence can be understood by re-examining the pyrimidine dependence of cps1 and cps2 growth. Uridine is believed to be the pyrimidine responsible for virulence of cps1 and cps2 in mice. Only 5 μM uridine completely rescues normal plaque size of cps1 and cps2 in vitro. Plasma concentrations of uridine in mice are approximately 5 to 10 μM.

cps1-1 and cps2-1 = assay: pyrimidine rescue of cps1-1 and cps2-1 replication and plaque formation; assay type: cell-based, Toxoplasma gondii; settings: 36-hour replication assay, HFF
Protocol: No pyrimidine compound at less than 25 μM could rescue plaque formation of cps1-1 or cps2-1. […] Uridine was quite poor at rescue of plaque formation in cps1-1 and cps2-1.
A more detailed growth response to pyrimidine, measured as parasite replications (doublings) was performed for cps1-1 and cps2-1 and compared to the results previously obtained for […]. […] Uridine rescue was poor, with a slow restoration of growth at very high amounts, >400 μM. Deoxyuridine rescue was significant, but again, full growth rate was not restored at any concentration of deoxyuridine. Rescue with uracil was robust, but only in a limited range of concentration. Full restoration of growth rate in cps1-1 and cps2-1 was possible only with uracil added between 200 and 400 μM. […] This phenotype can only be observed in T. gondii pyrimidine auxotroph mutants, not in wild-type parasites with intact de novo pyrimidine synthesis pathways.
The pyrimidine growth dependence of mutant cps1-1 on the pyrimidine salvage pathway was further documented in thymidine interference experiments. Mutant cps1-1 plaques well in 250 μM uracil or deoxyuridine, but not in 1000 μM thymidine. Since thymidine at 1000 μM is known to inhibit approximately 90% of the parasite nucleoside phosphorylase activity specific for cleavage of deoxyuridine (Iltzsch, (1993) J. Euk. Micro. 40:24-28), growth of cps1-1 was tested in combinations of 1000 μM thymidine and 250 μM uracil or 250 μM deoxyuridine. All pyrimidine salvage in T. gondii must pass through uracil and UPRT conversion of uracil to UMP. In contrast, thymidine has no effect on UPRT activity. Thus, if growth of cps1-1 were dependent on deoxyuridine supplementation then replication in this condition may be inhibited by co-supplementing with 1000 μM thymidine. […] Thus, when cps1-1 is grown in deoxyuridine the parasite strictly requires nucleoside phosphorylase activity to cleave deoxyuridine for growth. […] Thus, cps1-1 and cps2-1 rely strictly on pyrimidine salvage enzymes for growth and further, the HFF host cell in vitro cannot supply sufficient pyrimidines for growth of cps1-1 or cps2-1. […] Such potential inhibitors can only be identified using a pyrimidine auxotroph such as provided in the instant invention.
To assess reversion, 10^6 to 10^7 cps1-1 or cps2-1 parasites were periodically inoculated into HFF flasks supplemented with 5 μM uridine. This concentration of uridine is sufficient to rescue the parent strains (cps1 and cps2) of cps1-1 and cps2-1.

E. coli CPS = settings: cited from earlier work

Molecule: Nc1ccn([C@H]2C[C@H](O)[C@@H](CO)O2)c(=O)n1 [deoxycytidine]
- rescue of growth rate / replication of cps1 and cps2 (cps1 and cps2 mutants): completely rescued
- rescue of replication (doublings) of cps1-1 and cps2-1 (cps1-1 and cps2-1): remained as a single non-replicated parasite

B1: E. c. G359F: E. coli CPS with ammonia tunnel wall mutation G359F (protein, UniProt P0A6F1 1-382; P00968 2-1073, looked up, variant G359F)
Carbamoyl phosphate synthase … 1: MIKSALLVLEDGTQFHGRAIGATGSAVGEVVFNTSMTGYQEILTDPSYSRQIVTLTYPHIGNVGTNDADEESSQVHAQGLVIRDLPLIASNFRNTEDLSSYLKRHNIVAIADIDTRKLTRLLREKGAQNGCIIAGDNPDAALALEKARAFPGLNGMDLAKEVTTAEAYSWTQGSWTLTGGLPEAKKEDELPFHVVAYDFGAKRNILRMLVDRGCRLTIVPAQTSAEDVLKMNPDGIFLSNGPGDPAPCDYAITAIQKFLETDIPVFGICLGHQLLALASGAKTVKMKFGHHGGNHPVKDVEKNVVMITAQNHGFAVDEATLPANLRVTHKSLFDGTLQGIHRTDKPAFSFQGHPEASPFPHDAAPLFDHFIELIEQYRKTAK
Carbamoyl phosphate synthase … 2: PKRTDIKSILILGAGPIVIGQACEFDYSGAQACKALREEGYRVILVNSNPATIMTDPEMADATYIEPIHWEVVRKIIEKERPDAVLPTMGGQTALNCALELERQGVLEEFGVTMIGATADAIDKAEDRRRFDVAMKKIGLETARSGIAHTMEEALAVAADVGFPCIIRPSFTMGGSGGGIAYNREEFEEICARGLDLSPTKELLIDESLIGWKEYEMEVVRDKNDNCIIVCSIENFDAMGIHTGDSITVAPAQTLTDKEYQIMRNASMAVLREIGVETGGSNVQFAVNPKNGRLIVIEMNPRVSRSSALASKATGFPIAKVAAKLAVGYTLDELMNDITGGRTPASFEPSIDYVVTKIPRFNFEKFAGANDRLTTQMKSVGEVMAIGRTQQESLQKALRGLEVGATGFDPKVSLDDPEALTKIRRELKDAGADRIWYIADAFRAGLSVDGVFNLTNIDRWFLVQIEELVRLEEKVAEVGITGLNADFLRQLKRKGFADARLAKLAGVREAEIRKLRDQYDLHPVYKRVDTCAAEFATDTAYMYSTYEEECEANPSTDREKIMVLGGGPNRIGQGIEFDYCCVHASLALREDGYETIMVNCNPETVSTDYDTSDRLYFEPVTLEDVLEIVRIEKPKGVIVQYGGQTPLKLARALEAAGVPVIGTSPDAIDRAEDRERFQHAVERLKLKQPANATVTAIEMAVEKAKEIGYPLVVRPSYVLGGRAMEIVYDEADLRRYFQTAVSVSNDAPVLLDHFLDDAVEVDVDAICDGEMVLIGGIMEHIEQAGVHSGDSACSLPAYTLSQEIQDVMRQQVQKLAFELQVRGLMNVQFAVKNNEVYLIEVNPRAARTVPFVSKATGVPLAKVAARVMAGKSLAEQGVTKEVIPPYYSVKEVVLPFNKFPGVDPLLGPEMRSTGEVMGVGRTFAEAFAKAQLGSNSTMKKHGRALLSVREGDKERVVDLAAKLLKQGFELDATHGTAIVLGEAGINPRLVNKVHEGRPHIQDRIKNGEYTYIINTTSGRRAIEDSRVIRRSALQYKVHYDTTLNGGFATAMALNADATEKVISVQEMHAQIK
modifications: mutation in small subunit
- Effect on CPS or CPSII (E. coli CPS; effect on GATase-CPS coupling): Uncouples GATase & CPS

B2: E. c. E761A: E. coli CPS with K-loop mutation E761A (protein, UniProt P0A6F1 1-382; P00968 2-1073, looked up, variant E761A)
Carbamoyl phosphate synthase … 1: MIKSALLVLEDGTQFHGRAIGATGSAVGEVVFNTSMTGYQEILTDPSYSRQIVTLTYPHIGNVGTNDADEESSQVHAQGLVIRDLPLIASNFRNTEDLSSYLKRHNIVAIADIDTRKLTRLLREKGAQNGCIIAGDNPDAALALEKARAFPGLNGMDLAKEVTTAEAYSWTQGSWTLTGGLPEAKKEDELPFHVVAYDFGAKRNILRMLVDRGCRLTIVPAQTSAEDVLKMNPDGIFLSNGPGDPAPCDYAITAIQKFLETDIPVFGICLGHQLLALASGAKTVKMKFGHHGGNHPVKDVEKNVVMITAQNHGFAVDEATLPANLRVTHKSLFDGTLQGIHRTDKPAFSFQGHPEASPGPHDAAPLFDHFIELIEQYRKTAK
Carbamoyl phosphate synthase … 2: PKRTDIKSILILGAGPIVIGQACEFDYSGAQACKALREEGYRVILVNSNPATIMTDPEMADATYIEPIHWEVVRKIIEKERPDAVLPTMGGQTALNCALELERQGVLEEFGVTMIGATADAIDKAEDRRRFDVAMKKIGLETARSGIAHTMEEALAVAADVGFPCIIRPSFTMGGSGGGIAYNREEFEEICARGLDLSPTKELLIDESLIGWKEYEMEVVRDKNDNCIIVCSIENFDAMGIHTGDSITVAPAQTLTDKEYQIMRNASMAVLREIGVETGGSNVQFAVNPKNGRLIVIEMNPRVSRSSALASKATGFPIAKVAAKLAVGYTLDELMNDITGGRTPASFEPSIDYVVTKIPRFNFEKFAGANDRLTTQMKSVGEVMAIGRTQQESLQKALRGLEVGATGFDPKVSLDDPEALTKIRRELKDAGADRIWYIADAFRAGLSVDGVFNLTNIDRWFLVQIEELVRLEEKVAEVGITGLNADFLRQLKRKGFADARLAKLAGVREAEIRKLRDQYDLHPVYKRVDTCAAEFATDTAYMYSTYEEECEANPSTDREKIMVLGGGPNRIGQGIEFDYCCVHASLALREDGYETIMVNCNPETVSTDYDTSDRLYFEPVTLEDVLEIVRIEKPKGVIVQYGGQTPLKLARALEAAGVPVIGTSPDAIDRAEDRERFQHAVERLKLKQPANATVTAIEMAVEKAKEIGYPLVVRPSYVLGGRAMEIVYDEADLRRYFQTAVSVSNDAPVLLDHFLDDAVAVDVDAICDGEMVLIGGIMEHIEQAGVHSGDSACSLPAYTLSQEIQDVMRQQVQKLAFELQVRGLMNVQFAVKNNEVYLIEVNPRAARTVPFVSKATGVPLAKVAARVMAGKSLAEQGVTKEVIPPYYSVKEVVLPFNKFPGVDPLLGPEMRSTGEVMGVGRTFAEAFAKAQLGSNSTMKKHGRALLSVREGDKERVVDLAAKLLKQGFELDATHGTAIVLGEAGINPRLVNKVHEGRPHIQDRIKNGEYTYIINTTSGRRAIEDSRVIRRSALQYKVHYDTTLNGGFATAMALNADATEKVISVQEMHAQIK
modifications: mutation in large subunit
- Effect on CPS or CPSII (E. coli CPS; effect on UMP repression): Abolishes UMP repression
- Effect on CPS or CPSII (E. coli CPS; effect on ornithine activation): Abolishes ornithine activation
